In US20100260748A1 (published 2010):
Where a chain is given by its changes, count along the chain named. Names and notes keep the numbering of the source.

B1: murine anti-FcRH5 (10A8) monoclonal antibody (antibody, V domains shown)
VL: DIVMTQSHKFMSTSVRDRVSITCKASQDVSTAVAWYQQKPGQSPKLLIYSASYRYTGVPDRFTGSGSGTDFTFTISSVQAEDLAVYYCQQHFSSPRTFGGGTKVEIKR
VH: EVQLVESGGGLVKPGGSLKISCAASGFTFSSYAVSWVRQTPEKRLEWVATISSGGSLTFYLDSVRGRFTISRDNAKNTLYLQMSSLRSEDTAMYYCARPIPDYYALDYWGQGTSVTVSS
notes: Murine hybridoma IgG; also called 10A8.1.1; mu10A8
B2: thio-hu10A8-HC(A118C)-MC-vc-PAB-MMAE (antibody, human IgG1, kappa)
heavy: not shown
light: DIQMTQSPSSLSASVGDRVTITCKASQDVSTAVAWYQQKPGKAPKLLIYSASYRYTGVPSRFSGSGSGTDFTLTISSLQPEDFATYYCQQHFSSPRTFGQGTKVEIKRTVAAPSVFIFPPSDEQLKSGTASVVCLLNNFYPREAKVQWKVDNALQSGNSQESVTEQDSKDSTYSLSSTLTLSKADYEKHKVYACEVTHQGLSSPVTKSFNRGEC
modifications: MC-vc-PAB-MMAE on the engineered Cys 118 (EU numbering)
notes: Antibody-drug conjugate (thioMab drug conjugate); also called thio-HC(A118C)-hu-anti-FcRH5 (10A8)-MC-vc-PAB-MMAE; Thio-HC(A118C)-hu-anti-FcRH5 (10A8)-vc-E
B3: thio-hu10A8 v1-HC(A118C) (antibody, human IgG1, kappa)
heavy: not shown
light: B2 light
notes: Cysteine engineered humanized IgG1 (thioMab), unconjugated; also called thio.hu10A8.HC; Thio-hu10A8-HC(A118C)
B4: thio-hu10A8 v1-LC(V205C) (antibody, human IgG1, kappa)
heavy: not shown
light: B2 light with V205C
notes: Cysteine engineered humanized IgG1 (thioMab), unconjugated; also called thio.hu10A8.LC; thio-hu10A8-LC(V205C)
B5: thio-hu10A8-LC(V205C)-MC-vc-PAB-MMAE (antibody, human IgG1, kappa)
heavy: not shown
light: B2 light with V205C
modifications: MC-vc-PAB-MMAE on the engineered Cys 205 (Kabat numbering)
notes: Antibody-drug conjugate (thioMab drug conjugate); also called Thio-LC(L205C)-hu-anti-FcRH5 (10A8)-vc-E
B6: Thio-ch10A8-HC(A118C)-MC-vc-PAB-MMAE (antibody, human IgG1, kappa, name in EU numbering)
light: DIVMTQSHKFMSTSVRDRVSITCKASQDVSTAVAWYQQKPGQSPKLLIYSASYRYTGVPDRFTGSGSGTDFTFTISSVQAEDLAVYYCQQHFSSPRTFGGGTKVEIKRTVAAPSVFIFPPSDEQLKSGTASVVCLLNNFYPREAKVQWKVDNALQSGNSQESVTEQDSKDSTYSLSSTLTLSKADYEKHKVYACEVTHQGLSSPVTKSFNRGEC
heavy: not shown
modifications: MC-vc-PAB-MMAE on the engineered Cys 118 (EU numbering)
notes: Antibody-drug conjugate of thio-ch10A8.HC
B7: chimeric anti-human FcRH5 antibody 10A8 (ch10A8) (antibody, human IgG1, kappa)
light: B6 light
heavy: not shown
notes: Murine 10A8 variable domains with human kappa and human IgG1 constant domains; also called chMAFcRH5 (10A8); chFcRH5 (10A8)
B8: ch10A8-SPDB-DM4 (antibody, human IgG1, kappa)
light: B6 light
heavy: not shown
modifications: DM4 linked through the e-amino group of lysine using the SPDB linker (sites not given)
B9: cysteine engineered chimeric anti-FcRH5 10A8, heavy chain A118C (thio-ch10A8.HC) (antibody, human IgG1, kappa, name in EU numbering)
light: B6 light
heavy: not shown
notes: also called Thio-ch10A8-HC(A118C)
B10: humanized anti-FcRH5 antibody 10A8 version 1 (hu10A8 v1) (antibody, human IgG1, V domains shown)
VL: DIQMTQSPSSLSASVGDRVTITCKASQDVSTAVAWYQQKPGKAPKLLIYSASYRYTGVPSRFSGSGSGTDFTLTISSLQPEDFATYYCQQHFSSPRTFGQGTKVEIKR
VH: EVQLVESGGGLVQPGGSLRLSCAASGFTFSSYAVSWVRQAPGKGLEWVATISSGGSLTFYLDSVRGRFTISRDNSKNTLYLQMNSLRAEDTAVYYCARPIPDYYALDYWGQGTLVTVSS
notes: Full-length human IgG1 with human kappa constant domain; also called 10A8-graft; hu10A8 graft

Experiments:
[1] = molecular target: T1, cynomolgus FcRH5 expressed on stably transfected SVT2 cells (cynomolgus monkey); assay: Scatchard analysis, 0.5 nM 125I-labelled antibody competed with the same unlabelled antibody (50 to 0.02 nM), SVT2.cyFcRH5 cells, 4 h at 4 C
T1 construct: also called cyno FcRH5; cynoFcRH5
T1 chain: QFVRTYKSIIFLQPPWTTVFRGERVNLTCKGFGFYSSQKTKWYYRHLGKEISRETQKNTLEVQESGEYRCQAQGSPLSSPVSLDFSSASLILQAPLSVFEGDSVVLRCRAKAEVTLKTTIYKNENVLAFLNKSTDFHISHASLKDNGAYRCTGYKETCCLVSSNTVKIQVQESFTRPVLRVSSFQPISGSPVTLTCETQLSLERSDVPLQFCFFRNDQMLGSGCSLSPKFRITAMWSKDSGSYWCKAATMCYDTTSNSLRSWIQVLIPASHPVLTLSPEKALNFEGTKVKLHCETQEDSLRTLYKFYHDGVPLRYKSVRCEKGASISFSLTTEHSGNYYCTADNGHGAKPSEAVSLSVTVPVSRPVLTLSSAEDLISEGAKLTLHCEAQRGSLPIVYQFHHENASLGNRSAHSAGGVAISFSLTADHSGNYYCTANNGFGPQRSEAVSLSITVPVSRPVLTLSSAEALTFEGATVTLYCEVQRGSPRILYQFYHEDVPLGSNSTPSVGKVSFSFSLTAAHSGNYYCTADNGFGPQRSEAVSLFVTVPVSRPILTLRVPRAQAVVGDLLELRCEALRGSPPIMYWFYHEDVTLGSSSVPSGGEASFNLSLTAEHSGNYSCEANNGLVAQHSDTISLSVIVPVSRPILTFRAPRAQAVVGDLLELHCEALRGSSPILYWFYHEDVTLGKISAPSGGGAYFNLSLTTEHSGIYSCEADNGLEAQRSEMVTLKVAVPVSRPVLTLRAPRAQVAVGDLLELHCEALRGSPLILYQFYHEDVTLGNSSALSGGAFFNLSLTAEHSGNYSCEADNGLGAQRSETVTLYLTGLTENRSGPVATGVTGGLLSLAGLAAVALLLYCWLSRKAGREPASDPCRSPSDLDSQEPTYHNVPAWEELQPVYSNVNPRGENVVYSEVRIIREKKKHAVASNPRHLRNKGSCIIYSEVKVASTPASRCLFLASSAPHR
Experimental: (§1) To further determine binding of the FcRH5 murine antibodies and IgG clones, binding of iodinated IgG variants to OPM2 cells expressing human FcRH5 and SVT2 cells expressing cynomologous FcRH5, Scatchard analysis was performed.
(§2) For Scatchard analysis, 0.5 nM I¹²⁵ labeled murine or IgG clone anti-FcRH5 was competed against unlabeled murine or IgG clone anti-FcRH5, respectively, ranging from 50 to 0.02 nM (12 step 1:2 serial dilution) in the presence of a transfected OPM2 line stably expressing human-FcRH5 and a transfected SVT2 line stably expressing cynomologous-FcRH5. After a four hour incubation at 4° C., cells were washed and cell pellet counts were read by a gamma counter (1470 WIZARD Automatic Gamma Counter; Perkin Elmer, Walthem, Mass.). All points were done in triplicate and counted for 10 minutes. The average CPM was used for Kd calculation using the New Ligand (Genentech, South San Francisco, Calif.) program.

[2] = molecular target: T2, human FcRH5 expressed on stably transfected cells (BJAB.huFcRH5, OPM2.huFcRH5) (human, UniProt Q96RD9 16-977); assay: Scatchard analysis, 0.5 nM 125I-labelled antibody competed with the same unlabelled antibody (50 to 0.02 nM), BJAB.huFcRH5 cells, 4 h at 4 C
T2 construct: also called OPM2-FcRH5; BJAB-FcRH5
T2 chain: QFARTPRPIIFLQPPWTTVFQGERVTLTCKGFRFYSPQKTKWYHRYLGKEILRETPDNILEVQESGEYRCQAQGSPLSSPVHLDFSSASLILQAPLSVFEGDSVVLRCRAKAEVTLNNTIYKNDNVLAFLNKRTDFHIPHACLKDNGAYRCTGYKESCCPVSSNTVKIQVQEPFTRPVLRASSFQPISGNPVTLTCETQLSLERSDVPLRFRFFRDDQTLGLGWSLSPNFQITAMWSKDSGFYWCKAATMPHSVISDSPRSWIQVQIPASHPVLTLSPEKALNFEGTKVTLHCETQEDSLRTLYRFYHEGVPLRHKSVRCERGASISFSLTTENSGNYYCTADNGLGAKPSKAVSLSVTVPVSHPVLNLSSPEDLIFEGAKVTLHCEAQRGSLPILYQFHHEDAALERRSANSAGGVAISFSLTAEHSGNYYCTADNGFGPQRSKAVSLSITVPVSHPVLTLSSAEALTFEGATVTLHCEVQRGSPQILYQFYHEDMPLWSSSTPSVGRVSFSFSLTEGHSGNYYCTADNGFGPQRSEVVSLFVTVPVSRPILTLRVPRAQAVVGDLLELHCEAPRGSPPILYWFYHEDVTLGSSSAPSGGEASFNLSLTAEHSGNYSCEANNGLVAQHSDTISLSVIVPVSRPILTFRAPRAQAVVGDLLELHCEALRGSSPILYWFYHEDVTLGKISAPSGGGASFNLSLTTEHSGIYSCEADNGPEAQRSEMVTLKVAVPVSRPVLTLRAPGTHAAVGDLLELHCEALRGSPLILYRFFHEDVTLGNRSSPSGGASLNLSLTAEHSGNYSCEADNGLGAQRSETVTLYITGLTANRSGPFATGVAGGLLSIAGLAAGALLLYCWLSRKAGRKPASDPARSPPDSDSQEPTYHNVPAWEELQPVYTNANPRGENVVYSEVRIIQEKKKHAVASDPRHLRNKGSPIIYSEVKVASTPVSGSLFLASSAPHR

[3] = molecular target: T2, human FcRH5 expressed on stably …; assay: FACS (0.1, 1.0, 10 ug/mL ADC) on OPM2 cells stably expressing human FcRH5
Experimental: For FACS analysis of FcRH5 antibody drug conjugates (see Example 2), FcRH5 ADCs were added in increasing concentrations (0.1, 1.0, and 10 μg/mL) to 10⁶ OPM2 cells transfected with and stably expressing human FcRH5 or SVT2 cells transfected with and stably expressing cynomolgus FcRH5 in a 100 μL reaction volume. Samples were then incubated 1 hr at […] in FACS buffer (PBS, 0.5% BSA, 0.1% sodium azide) to inhibit interalization. After washing, cells were resuspended in FACS buffer and incubated 30 min at room temperature with 20 μL mouse anti-human IgG conjugated to phycoerythrin (Ms anti-Human-PE) secondary antibody in a 100 μL reaction volume. After washing, cells were fixed in 200 μL 2% paraformaldehyde/PBS and flow cytometery performed. The same procedure was used for HuIgG, however, at only the highest concentration (10 μg/mL). The HuIgG was used as an isotype control to set baseline PMT per cell line. Flow cytomery was performed on a BD FACSCalibur® and geometric mean fluorescence intensity was recorded for each sample. Recorded data was analyzed using FlowJo v8.4.5 software (see FIGS. 20-25).

[4] = molecular target: T2, human FcRH5 expressed on stably …; assay: Scatchard analysis, 0.5 nM 125I-labelled antibody competed with the same unlabelled antibody (50 to 0.02 nM), OPM2.huFcRH5 cells, 4 h at 4 C
Experimental: as §1, §2

| Binder | Kd [1] | binding result [3] | other results |
| --- | --- | --- | --- |
| B1 | 2.74 nM | – | Kd [2]: 0.44 nM |
| B2 | – | binds | – |
| B3 | 3.12 nM | – | – |
| B4 | 2.63 nM | – | – |
| B5 | – | binds | – |
| B6 | – | binds | – |
| B7 | 0.98 nM | – | – |
| B8 | – | binds | – |
| B9 | 1.57 nM | – | Kd [4]: 0.85 nM |
| B10 | 3.04 nM | – | Kd [4]: 1.44 nM |
